The text below walks through data of patent publication US20150125421A1.

Bounds are passed on as bounds.

Holding throughout (assay): cell-based or functional assay
For assay [1], the target named is rat MHC class II RT1B (I-A) glycoproteins (rat).
The target of assay [2] is rat IL-4 receptor on cells (rat).
The target of assay [3] is rat IL-2 receptor on cells (rat).

As for OX6 anti-I-A (RT1B) IgG1 mAb (antibody), in assay [1], the [3H]thymidine incorporation of RsL.11 T cells with 100 nM cytokine/NAg in the presence of OX6 is less than 10000 cpm; the [3H]thymidine incorporation of RsL.11 T cells with 100 fM-10 nM cytokine/NAg in the presence of OX6 is less than 1000 cpm; the inhibition of the antigenic reactivity of IL4.4 (RsL.11 proliferation, irradiated splenic APC) (orders of magnitude) was more than 5; the inhibition of the response to GPMBP (RsL.11 proliferation, irradiated splenic APC) was determined as 100 fold.

B1: IL4Ekdel (rat IL4/GP73-87/6his fusion protein) (protein)
chain: CNDSPLREIINTLNQVTEKGTPCTEMFVPDVLTATRNTTENELICRASRVLRKFYFPRDVPPCLKNKSGVLGELRKLCRGVSGLNSLRSCTVNESTLTTLKDFLESLKSILRGKYLQSCTSMSPQKSQRSQDENPVVHHHHHHH
In assay [2], B1 registered an antigenic potency against GPMBP (RsL.11 proliferation, irradiated splenic APC) of more than 1000 times and a potency against GPMBP in MHCII-dependent T cell-mediated killing assay (R1-trans T-APC) of 1000 times.

B2: IL2.7 (rat IL2/EK/GP73-87/6his fusion protein) (protein)
chain: APTSSPAKETQQHLEQLLLDLQVLLRGIDNYKNLKLPMMLTFKFYLPKQATELKHLQCLENELGALQRVLDLTQSKSFHLEDAGNFISNIRVTVVKLKGSENKFECQFDDEPATVVEFLRRWIAICQSIISTMTQGDDDDKGPQKSQRSQDENPVVHHHHHHH
In the case of B2, in assay [3], the antigenic potency against GPMBP added with saturating IL-2 as a separate molecule was found to be 100 fold; the inhibition by soluble IL-2 of the RsL.11 proliferative response to IL2.7 (irradiated splenic APC) was 10 fold; the potency against GPMBP in T cell-mediated cytotoxic assay (R1-trans T-APC, irradiated RsL.11), IL-2 added 24 hours after initiation of culture came out at 1000 times; the potency against GPMBP in T cell-mediated cytotoxic assay (R1-trans T-APC, irradiated RsL.11), IL-2 added at the initiation of culture was found to be 32 fold.

B3: IL4.4 (rat IL4/EK/GP73-87/6his fusion protein) (protein)
chain: CNDSPLREIINTLNQVTEKGTPCTEMFVPDVLTATRNTTENELICRASRVLRKFYFPRDVPPCLKNKSGVLGELRKLCRGVSGLNSLRSCTVNESTLTTLKDFLESLKSILRGKYLQSCTSMSGDDDDKGPQKSQRSQDENPVVHHHHHHH
In assay [2], B3 came in with an antigenic potency against GPMBP added with saturating IL-4 as a separate molecule of 100 fold; an antigenic potency against GPMBP, by antigen concentrations eliciting a half maximal response (RsL.11 proliferation, irradiated splenic APC) of more than 100 fold; an inhibition by soluble IL-4 of the RsL.11 proliferative response to IL4.4 (irradiated splenic APC) of 10 fold.

B4: IL2Ekdel (rat IL2/GP73-87/6his fusion protein) (protein)
chain: APTSSPAKETQQHLEQLLLDLQVLLRGIDNYKNLKLPMMLTFKFYLPKQATELKHLQCLENELGALQRVLDLTQSKSFHLEDAGNFISNIRVTVVKLKGSENKFECQFDDEPATVVEFLRRWIAICQSIISTMTQPQKSQRSQDENPVVHHHHHHH
With B4, in assay [3], the lowest concentration fully active in MHCII-dependent T cell-mediated killing assay worked out at 100 fM and the potency against GPMBP or DHFR-NAg in MHCII-dependent T cell-mediated killing assay (R1-trans T-APC) (orders of magnitude) is more than 5.
